Test results taken from patent publication US20100196403A1, “ANTIBODY CONJUGATES FOR CIRCUMVENTING MULTI-DRUG RESISTANCE” (priority 2007, published 2010).

What was measured:
HU-2 cells = assay: Cell viability of HU-2 cells with toxic drugs (Trypan blue exclusion); format: cell-based, mouse; conditions: 2 μg/ml Adriamycin or 1 μg/ml colchicine, FIG. 6A
Experimental: T-25 cells (Hochman et al, 1984), derived from S49 mouse lymphoma, were transduced with a retrovirus containing the human MDR1 cDNA, as previously described (Galski et al. 1995). The resultant cells (HU-2) are cross-resistant to colchicine, doxorubicin, vinblastine and actinomycin D, and their resistance to colchicine is reversed by verapamil. T-cell lymphoma derived cell lines were grown in Dulbecco's modified eagle medium (DMEM) supplemented with 10% heat-inactivated horse serum, at 37° C. in a humidified atmosphere containing 5% CO2.
To measure the sensitivity of HU-2 cells to toxic drugs, 1×10^5 cells per well were incubated with 10 μg of the conjugate for 4 hrs. 2 μg/ml of Adriamycin or 1 μg/ml of colchicine was then added and the cells incubated for a further 96 hrs. Stocks were prepared in DMSO. The maximal final concentration of DMSO in the assays was 0.5% (v/v). After 96 h, the cells were checked by light microscopy and viable cells were counted by Trypan blue exclusion.

[1] = target: human MDR1 (P-gp) expressed in HU-2 mouse lymphoma cells (human) (UniProt P08183); assay: cell-based or functional assay
Sequence of human MDR1 (P-gp) expressed in HU-2 mouse lymphoma cells (human) (P08183 whole entry): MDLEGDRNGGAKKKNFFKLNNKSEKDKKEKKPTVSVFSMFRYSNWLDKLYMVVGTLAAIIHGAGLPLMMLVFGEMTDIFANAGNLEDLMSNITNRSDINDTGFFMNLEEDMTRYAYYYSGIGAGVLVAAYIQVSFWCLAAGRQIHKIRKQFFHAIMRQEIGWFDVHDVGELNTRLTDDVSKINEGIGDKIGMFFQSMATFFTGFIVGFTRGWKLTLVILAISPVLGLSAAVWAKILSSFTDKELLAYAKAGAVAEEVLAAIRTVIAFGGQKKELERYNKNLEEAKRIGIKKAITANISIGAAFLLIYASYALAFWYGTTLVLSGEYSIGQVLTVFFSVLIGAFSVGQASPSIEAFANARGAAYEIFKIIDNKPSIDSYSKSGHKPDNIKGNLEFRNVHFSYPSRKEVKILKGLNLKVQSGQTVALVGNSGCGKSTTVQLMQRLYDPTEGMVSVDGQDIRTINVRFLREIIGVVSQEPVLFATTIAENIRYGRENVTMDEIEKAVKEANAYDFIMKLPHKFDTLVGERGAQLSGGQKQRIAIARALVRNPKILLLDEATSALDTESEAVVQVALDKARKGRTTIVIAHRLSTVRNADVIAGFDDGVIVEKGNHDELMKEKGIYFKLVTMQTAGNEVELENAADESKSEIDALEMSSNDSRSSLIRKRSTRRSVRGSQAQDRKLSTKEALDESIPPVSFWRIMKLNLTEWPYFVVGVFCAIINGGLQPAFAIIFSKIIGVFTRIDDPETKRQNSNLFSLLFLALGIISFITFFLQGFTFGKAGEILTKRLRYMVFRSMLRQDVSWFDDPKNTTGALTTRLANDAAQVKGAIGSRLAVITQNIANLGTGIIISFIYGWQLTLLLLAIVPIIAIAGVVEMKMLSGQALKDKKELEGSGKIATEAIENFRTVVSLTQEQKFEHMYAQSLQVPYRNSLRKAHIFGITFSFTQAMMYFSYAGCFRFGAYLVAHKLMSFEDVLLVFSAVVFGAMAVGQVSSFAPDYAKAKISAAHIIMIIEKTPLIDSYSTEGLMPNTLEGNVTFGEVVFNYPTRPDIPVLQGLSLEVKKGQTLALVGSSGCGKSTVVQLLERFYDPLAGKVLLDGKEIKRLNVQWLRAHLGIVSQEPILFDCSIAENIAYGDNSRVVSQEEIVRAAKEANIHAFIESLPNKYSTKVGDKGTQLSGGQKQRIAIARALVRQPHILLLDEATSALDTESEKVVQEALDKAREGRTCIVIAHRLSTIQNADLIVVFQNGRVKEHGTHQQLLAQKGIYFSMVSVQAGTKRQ

ABCB1 transporter = target: T1, ABCB1 transporter (Cricetulus griseus, UniProt P21448); format: cell-based, Chinese hamster
T1 construct: In drug resistant cells, calcein-AM is extruded by the ABCB1 transporter; endogenous in cells; host or cells: CHO cell clone CH(R)B30 (colchicine-resistant)
T1 sequence (P21448 whole entry): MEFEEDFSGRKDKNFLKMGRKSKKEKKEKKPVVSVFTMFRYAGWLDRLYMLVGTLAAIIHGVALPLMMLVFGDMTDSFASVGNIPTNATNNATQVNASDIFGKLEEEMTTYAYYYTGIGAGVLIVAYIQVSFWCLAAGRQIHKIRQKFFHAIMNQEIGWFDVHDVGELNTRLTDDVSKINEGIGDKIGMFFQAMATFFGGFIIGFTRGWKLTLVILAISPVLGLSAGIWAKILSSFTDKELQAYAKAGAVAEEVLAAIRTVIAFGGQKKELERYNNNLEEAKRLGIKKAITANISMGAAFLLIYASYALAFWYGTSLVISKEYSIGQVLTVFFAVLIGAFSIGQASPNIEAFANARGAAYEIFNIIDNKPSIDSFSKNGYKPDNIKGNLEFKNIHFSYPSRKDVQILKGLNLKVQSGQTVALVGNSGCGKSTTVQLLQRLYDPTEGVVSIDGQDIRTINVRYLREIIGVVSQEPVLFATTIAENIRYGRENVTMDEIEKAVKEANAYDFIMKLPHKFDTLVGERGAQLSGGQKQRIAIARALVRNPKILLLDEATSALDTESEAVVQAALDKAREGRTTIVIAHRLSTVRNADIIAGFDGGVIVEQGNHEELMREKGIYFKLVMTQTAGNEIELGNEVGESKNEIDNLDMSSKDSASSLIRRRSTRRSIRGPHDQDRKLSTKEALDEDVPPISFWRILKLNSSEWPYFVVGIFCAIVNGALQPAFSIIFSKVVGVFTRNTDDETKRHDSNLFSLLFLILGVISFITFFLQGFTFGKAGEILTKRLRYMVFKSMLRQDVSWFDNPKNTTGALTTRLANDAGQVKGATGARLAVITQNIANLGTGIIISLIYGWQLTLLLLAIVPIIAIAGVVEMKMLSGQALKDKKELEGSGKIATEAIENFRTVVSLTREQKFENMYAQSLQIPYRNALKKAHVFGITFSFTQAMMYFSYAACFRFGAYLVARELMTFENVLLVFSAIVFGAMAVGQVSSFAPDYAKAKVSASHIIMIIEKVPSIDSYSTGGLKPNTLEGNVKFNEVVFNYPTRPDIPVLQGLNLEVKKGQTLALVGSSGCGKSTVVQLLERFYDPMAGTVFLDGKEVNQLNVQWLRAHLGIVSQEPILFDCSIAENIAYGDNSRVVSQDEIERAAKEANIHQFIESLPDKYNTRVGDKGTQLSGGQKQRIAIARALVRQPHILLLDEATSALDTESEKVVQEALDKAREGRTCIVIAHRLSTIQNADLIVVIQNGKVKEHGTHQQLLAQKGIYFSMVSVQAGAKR
Experimental: Cells were grown in alpha-MEM medium supplemented with 10% Fetal Calf Serum (FCS), penicillin 50 U/ml, streptomycin 50 μg/ml, and ceftazidim 50 μg/ml. For propagation of the clone, colchicine was added to this medium to a final concentration of 20 μg/ml.
Cells were diluted in alpha MEM to about 1.5×10^6 cells/ml. Volumes of 1 ml were distributed to 2 ml Eppendorf tubes. […] The capped tubes were positioned with their longitudinal axes inclined to 45° on a roller platform and were rotated in the incubator. The cells were incubated with conjugates, proteins, or peptides, respectively, at various concentrations and for various times. […] Calcein-AM was added to a final concentration of 1 μM or 2 μM at least 30 min before the end of incubation. Calcein-AM, a substrate of ABCB1, is a hydrophobic non-fluorescent substance that easily enters cells. Once in the cytoplasm, calcein-AM is hydrolysed, and the ensuing fluorescent calcein is retained within the cells. In drug resistant cells, calcein-AM is extruded by the ABCB1 transporter. […] All vials were stopped by addition of ice-cold medium and then put on ice for subsequent flow cytometry (beginning about 1 h after the end of incubation). […] 100,000 cells, in a few experiments 50,000 cells per vial were counted. […] The median channel xM of the y distribution and yM, the number of cells in xM, were determined.

Q: Which “viability of HU-2 cells with drug, no conjugate” value (HU-2 cells) does the source give for `COc1cccc2c1C(=O)c1c(O)c3c(c(O)c1C2=O)C[C@@](O)(C(=O)CO)C[C@@H]3O[C@H]1C[C@H](N)[C@H](O)[C@H](C)O1` [adriamycin, doxorubicin] here?
A: remain viable

Q: With `COc1cc2c(c(OC)c1OC)-c1ccc(OC)c(=O)cc1[C@@H](NC(C)=O)CC2` [colchicine] as the compound, how does the “viability of HU-2 cells with drug, no conjugate” value (HU-2 cells) read?
A: remain viable

Q: “C219-S-S-(37-72)Tat conjugate (Mab C219 linked through PDPH and a disulfide bond to Cys 37 of HIV-1 (37-72)Tat) (antibody)” was tested. Which cell death of HU-2 cells with Adriamycin 2 µg/ml in the presence of 10 µg conjugate, Trypan blue count after 96 h, normalized to drug without conjugate [1] did it give?
A: 68%

Q: What about the cell death of HU-2 cells with colchicine 1 µg/ml in the presence of 10 µg conjugate, Trypan blue count after 96 h, normalized to drug without conjugate [1] of the same compound?
A: 91%

Q: What does the source list for “CFITKALGISYGRKKRRQRRRPPQGSQTHQVSLSKQ [(37-72)Tat]”?
A: shift in the flow cytometry histogram (ABCB1 transporter; 1 μM, 210 min, FIG. 4F): small; effect on MDR activity (summary of results) (ABCB1 transporter; colchicine-resistant CH(R)B30 cells): only a marginal effect
